Source: the supplement of paper PMC12042874
± gives the uncertainty stated by the source.

Experiment: amyloid nucleation score (Sup35N fusion, yeast selection) (log enrichment); library NNK3; higher = more nucleation; inactive = no reads after selection
Method in brief: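 Sup35N was fused to peptides of 20 random codons and expressed in psi-negative yeast, which were induced with 100 μM copper sulfate for 24 hours and then grown on medium lacking adenine and uracil for 7 days at 30°C. Plasmid inserts from input and output were sequenced on Illumina. The nucleation score is the DiMSum log enrichment of output over input reads, centred on the mode score of non-aggregating sequences. Sequences with under 100 input reads were left out, and random libraries had three technical output replicates.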

| Substance | amyloid nucleation score |
| --- | --- |
| AVSFLWHTYVLGGLLKLFGG | inactive |
| EISLPLFFATLGYFFWIAMR | inactive |
| YSYICIILYWWCSRSAILPF | inactive |
| YLSIGSVSMSAGASANDAQ | inactive |
| IKAYSRRSLSSSG | inactive |
| GFCICEYDRCTIFSYNHYGA | 2.94 ± 0.054 |
| KNLRVLGSSLIGLTLIECHG | -0.801 ± 1.1 |
| FLSCNTCWGMTNANLSDNFN | 2.05 ± 0.071 |
| CINIGVMDEWGVAVTLLVKN | inactive |
| MCGDCICVVSVMLAHAPKCS | inactive |
| FNIMVYCNESSL | inactive |
| VIGVNIWSCL | 1.29 ± 0.1 |
| RTRFVCICTSSNSLLYGRSS | 0.714 ± 0.25 |
| LCICFRNLLFEWCSLAE | inactive |
| LLLWGTHHSMIYYDGCLIFI | inactive |
| LLIDNVCSNIARVMHKVWLW | inactive |
| SCIFNWFGFYNIINVFNLCF | 2.5 ± 0.053 |
| TLLFSIYCIFLNPSVQRRFE | -0.028 ± 0.43 |
| VYTGWKKVACNA | -0.211 ± 0.53 |
| ISWYVWRVMYMSCGWSIVFR | inactive |
| TRLGYKKGFFMTSSSHRLMV | inactive |
| VCYVKYSSLLCMNLGIRHRT | inactive |
| DLSPRYL | inactive |

| Substance | amyloid nucleation score |
| --- | --- |
| MCQNANRYTGMSLVMFVGSV | 1.24 ± 0.12 |
| SSVRRYHKLIKRRDYVAFNV | inactive |
| FFNVMVS | inactive |
| CKLNICRNVEETTIFRLGDV | 1.39 ± 0.11 |
| LFSHESLVTTGLVAVFSLAK | inactive |
| WFGLIFFLICLYTPQLSLKL | inactive |
| MEFYVYTMDKRCSRMFSWHS | inactive |
| DIGMDGYRLLRRSQQRYFMN | inactive |
| PLCIHLVVMKSKPATNFSGA | inactive |
| ESFLFFMFIFASCTT | 0.536 ± 0.33 |
| LCNFKDSADNWVSVGGNVGE | inactive |
| DVFDYVSTVVTNYW | inactive |
| FIKLKGL | inactive |
| ILWQYQTCC | -0.457 ± 0.73 |
| NDKVYRVGRTNLYNV | inactive |
| SWLFHRYFVGSYCVLMDMRV | inactive |
| FIKYFANLRKFCDILSCSL | 1.27 ± 0.14 |
| YDSRWLDGSACKNKVQFGCQ | inactive |
| RLNCDCPAMHVCN | 2.35 ± 0.074 |
| FVSGYVVALCYPWQGCPGVC | 1.97 ± 0.093 |
| YTVGIVTDWFVTSGNSFYK | inactive |
| ITKKRYNCRMFLIT | inactive |
| SWCLERHGTRWSEFNYGPSS | inactive |

| Substance | amyloid nucleation score |
| --- | --- |
| SSSNLLKPSYFCKGSRGASQ | inactive |
| HRYVKALRFF | inactive |
| SSLRR | inactive |
| LCGSKICFLDSYDVESLISR | inactive |
| EKLCAHCSCPKVGVELFGCV | inactive |
| TLLRLHQVAY | inactive |
| LCFFV | inactive |
| LKDWVRYGVEIQAVSMGILV | 0.221 ± 0.16 |
| SCMKDMWFVRVMIGLEKKNS | inactive |
| IPYRLVGMLTVVTCRTSKLC | inactive |
| FKLRTDIAMDINVGQDLSGL | inactive |
| FASIVFRCVLFTLFHPAVFR | inactive |
| LLYSLWCEMMYPSKGARM | inactive |
| GRSYREIMDSIFCGQFFYNK | 2.45 ± 0.077 |
| CVSFNLVSWVFNYCS | 2.55 ± 0.056 |
| NVFIHLFTILALGFHL | inactive |
| ARVVVG | inactive |
| SARRNSRTFLSLFVFHLFRA | inactive |
| SVGEKGN | inactive |
| LQCAHLFPV | 0.931 ± 0.099 |
| VYNQNAKVTN | inactive |
| FILSVCYARRDLTLKRTPSR | inactive |
| DCILGGSMMGRNTSMSAHDN | inactive |

| Substance | amyloid nucleation score |
| --- | --- |
| SSFSFYYDFIHS | -0.433 ± 0.88 |
| IEWVRNTLSISLIERYRLNG | inactive |
| PYRGSPACMGDYGNQVGNGS | inactive |
| GGNSWITSMLAYWLTSAHNA | inactive |
| TLIFFDKDYYCGVRQMWNVG | inactive |
| TKLMGLSVLLIEVIVGVSCW | inactive |
| DSSRTVGCLSCFYFAIGFWI | 0.681 ± 0.34 |
| IRLHLLLGFVV | inactive |
| IRRLDEVNEWANSYKLWKKQ | inactive |
| DNCCKLARVLAWFVFNRLNR | inactive |
| STQTLEKNDVWGFLHSYWCR | 0.128 ± 0.41 |
| LHVSTRFA | inactive |
| YANFVRYNRLVKDRAVRSPK | inactive |
| MITDSGIYFAFCWDKSTVSS | inactive |
| MALLLDILMNNNFISIKGFI | inactive |
| HLHVVHKIAS | -0.471 ± 0.82 |
| LWPAAQLLLKRE | inactive |
| SVYCYEAS | inactive |
| QCRQVIENNRVLFVAIKWEN | 0.57 ± 0.58 |
| MFVWHSC | inactive |
| HITCVMSIKTRGLRMTERGS | 1.51 ± 0.096 |
| IEFRLWYG | inactive |
| TNLACWVTFCPNCMMLDYLG | 2.21 ± 0.064 |

| Substance | amyloid nucleation score |
| --- | --- |
| YVSPNF | inactive |
| FYYLTKSGYAFRLSKTSP | inactive |
| LHLTDLYYGF | inactive |
| VSLIVLVRSVCSCVTHSFYE | 2.08 ± 0.097 |
| LVKIWDPSFNCFWMNGISNG | 1.01 ± 0.14 |
| QMRCLY | inactive |
| KYGFAVRPFDTGSRMSHFCW | inactive |
| PHRGACMARTLSEVFCRAGS | inactive |
| LVVCTSAFIGMTDY | -0.532 ± 0.8 |
| SEGFLAWCLRDLRSGRVAR | inactive |
| LFMRCSYCSV | inactive |
| VRVLWI | inactive |
| NGNFWCFVLVLS | 0.595 ± 0.24 |
| RADFLPVKNVMRFRCEFWKR | inactive |
| KTMVYGIQANDGWLVHGGFL | inactive |
| NNGFGSWGV | inactive |
| PVWVKYIDYCPSRKHLSCRV | inactive |
| HAEFSEHITCGGSGPSCFVG | inactive |
| VTCCARTYYSWP | inactive |
| SCHLEVLFISLFD | inactive |
| MRVVECLMRSLCRLDVRVHC | inactive |
| TEFKAFHNCQINRSDTTLWL | 0.096 ± 0.68 |
| ICSFFGNSPVRLQVYFLWSW | inactive |

| Substance | amyloid nucleation score |
| --- | --- |
| IQSKRRPSDCLPKS | inactive |
| VVDCWSVKATSDSYDGMWGV | inactive |
| SNHITRFQLESQTIPIISFV | inactive |
| SWRASVYFITWDW | inactive |
| SDCCGRNHVPEGVLWSQFNY | inactive |
| MLITYTLYCVICLGC | 1.46 ± 0.072 |
| NKSRTYCSARRLHRGKFRLI | inactive |
| KHLGKAKSSGST | inactive |
| IYIRVRMDEFLMSVTTIARG | inactive |
| YSFDASTYIYVSGRLFNKSV | inactive |
| CVRTGWIIMDSNKLD | inactive |
| IIGSCGGFVSLACSGTLDGV | 0.538 ± 0.2 |
| LNWGLVTDSTFIWLMDTLRL | 1.05 ± 0.11 |
| NRLFTH | inactive |
| AQFVWMKLHICRTDLGESH | inactive |
| TTCFTHGKLPNIRAWSIWTQ | inactive |
| WRTSMVASILRVRWEYLKWK | inactive |
| VNLVLIISNPR | inactive |
| RSFLIRFILDLVYIRRTRNV | -0.273 ± 1.1 |
| GFSNITMCLA | inactive |
| RALMGLVIKPKMSNTNLLDY | inactive |
| VRVSNSFMTDTK | inactive |
| TFYDDYQDLQKLFARFWLPV | inactive |

| Substance | amyloid nucleation score |
| --- | --- |
| LCVFL | 1.1 ± 0.15 |
| SRFQWLWKMCSNDG | inactive |
| KRFMDLTHIESSRAKVYRVT | inactive |
| GMRFRCKRYVCVLQ | -0.078 ± 0.98 |
| GYNNVESGNKYMLEDDFAFS | inactive |
| CVHNLN | inactive |
| FSGNGSSYYASSMNGDTVFL | inactive |
| LCVFWCGIPDRVFCNNGWMV | inactive |
| SFSYFRVSFEYGRCHRYAEN | inactive |
| YCTYN | inactive |
| IFTTNCYISNFYNGWWDV | 2.91 ± 0.078 |
| GWLLRCVSTLGGLKTLLC | inactive |
| DGCSRVMFNASGAMRRKVAN | inactive |
| VLGDSNFF | inactive |
| WPSLYHQMYGVYLGLLVILK | inactive |
| NGWCHYWVWASIYDPNEISA | inactive |
| MCFEVLHACRYFVRHSSQRI | inactive |
| YIRVNTILDLD | inactive |
| NEGWPLWQWSSAVKHTFSKR | 0.422 ± 0.31 |
| LASRMMFSLTDAMTDADGSV | inactive |
| EQTLGYNLIRAWLSKCCWMT | inactive |
| FLDIRMMIRRLTGGPESVSL | inactive |
